According to the nanobody polyreactivity screen of Harvey et al. (2022):

Assay: yeast display, Sf9 membrane polyspecificity reagent, FACS + sequencing; frameworks hold sequencing errors
Summary of the method: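 A nanobody's polyreactivity label depends on the gate it was sorted from. Yeast display cells were stained with 10% biotinylated, detergent-solubilized Sf9 membrane reagent for 1 hour at 4 °C, enriched on streptavidin microbeads and sorted by FACS. The low and high (top ~1%) gates were set on anti-HA fluorescence for expression and streptavidin fluorescence for reagent binding.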

| Sequence | polyreactivity (PSR sort gate) |
| --- | --- |
| QVQLVESGGGLVQAGGSLRLICAASGSILNWYAMGWYRQAPGKERELVAAINRGTGTYYADSVKGRFTISRDNAKNTVYLQMISLKTEDTAVYYCAAEWYVYDFEFYYWGQGTQVTVSS | high polyreactivity |
| QVQLVESGGGLVQAGGSLRLSCAASGLIFYWNTMGWYRQAPGKERELVAYISGGGGRTYYADSVKGRFTISRDNAKNTVYLQMNSLKPEDTAVYYCAAKLYGYRSGYYYWGQGTQVTVSS | high polyreactivity |
| QVQHVDSGGGLVQAGGSLRLSCAASGRTLTVYAMGWYRQAPGKERELVAAITWRGGSTYYADSVKGRFTISRDNAKNTVYLPMNSLKPADTPVDYCAAEDYTYNGGGYEYWGQGTQVTVSS | low polyreactivity |
| QDQLVESGGGIVQAGGSLRLSCAASGRTFVAYAMGLYRQAPGKEREFVARISSGGSTYYADSVKGRFTISRDNAKNTVYLQMNSLKPEDTAVYYCAADRGPYFVPWRRYDYWGQGTQVTVSS | low polyreactivity |
| QVQLVESGGGLVQAGGSLRLSCAASGGTFYANAMGWYREAPGKERELVATITSSSGSTSYADSVKGRFTISRDNAKNTVYLQMNSLKPEDTAVYYCAKDSHAQGPYRYKHYHHTGDYWGQGTQVTVSS | low polyreactivity |
| QVQLVESGGGLVQAGGSLRLSCAASGSIFYGYAMGWYRQAPGKEREFVAAITWSGGSTHYADSVKGRFTNSRDNAKNTVYVQMNSLKPEDTAVYYCAAPSYGNYPYRSYVWYGYWGQGTQVTVSS | high polyreactivity |
| QVQLVESGGGLVQAGGRLLLSSAASGSTFIWNGMGWYRQAPGKERELVAAITSSSTYYADSVKGRFTISRDNAKNTVYLQMNSLKPEDTAVYYCAATFIQVVVNVQLYDYDYWGQGTQVTVSS | low polyreactivity |
| QVQLVESGGGLVQAGGSLRLSCAASGSIFWPYAMGWYRQAPGKERELVAGISSGGSTYYADSVKGRFTISRDNAKNTVYLQMNSLKPEDTAVYYCAARWQWLNGYYYWGQGTQVTVSS | high polyreactivity |
| QVQLVESGGGLVQAGGSLRLSCAASGNIFVFYVMGWYRQAPGNEREFVASFSSTGNTYYADSVKGRFTISRDNAKNTVYLQLNSLKPEDTAVYYCAADSHQNVSGWLRWPRMDYWGQGTQVTVSS | low polyreactivity |
| QVQLVESGGGLVQAGGSLRLSCAASGYTFRWYVMGWYRPAPGKERELVAAISQSGGDTYYADSVKGRFTISRDNAKNTVYLQMNSLKPEDTAVYYCAVGRVGRFYYWGQGTQVTVSS | high polyreactivity |
| QVQLVDSRGGLVQAGGSLRLSCAASGSIFSYYAMGWYRQAPGKEMELVAAITSSDGSTYYPDSVKGRFTISRDNAKNTVYLQINSLKPEDTAVYDCKAVRKYWLLGRYDYWGQGTQVTVSS | high polyreactivity |
| EVQLVESRGGLVQAGGSLRLSSADSGLTFPYNTMGWYRQAPGTERELVAAITARGGRTYYADSVKGRFTISRDNAKNTVYLQMNSLKPEDTAVYYCNADRTRGYQRYDYWGQGTQVTVSS | high polyreactivity |
| QVQLVESGGGLVHAGGSLRLSCAASGSTFDPNAMGWYRQAPGKERELVAAISWSGGSTYYADSVKGRFTISRDNAKNTVYLQMNSQKPEYTAVYYCNAQFYVSYSYTNDYWGQGTQVTVSS | low polyreactivity |
| QVQLVESGGGLVQAGGSLRLSCAASGRIFGYYARGWYRQAPGKEREFVAGITQRTDSTYYADSVKGRFTISRDNAKNTVYLQMNSLKPEDTAVYFCAARGYGGYHWGYYWGQGTQVTVSS | high polyreactivity |
| QVQLVESGGGLVQAGGSLRLSCAASGSIFYVYAMGWYRQAPGKERELVASIRWIGDRTYYADSVKGRFTISRDNAKNTVYLQMNSLKPEDTAVYYCAADPRYYGYYYLTPRYYYWGQGTQVTVSS | high polyreactivity |
| QVQLVESGGGLVQAGVSLRLSCAASGSTFSVNAMGWYRQAPGKERELVAAITYSGGSTYYADSVKGRFTISRDNAKNTVYLQMNSLKPEDTAVYYCAAEGGSALDDDYWGQGTQVTVSS | high polyreactivity |

| Sequence | polyreactivity (PSR sort gate) |
| --- | --- |
| QVQLVESGGGLVQAGGSLRLSCAASGFIFRGYAMGWYRQAPGKERELVAAISRSGGSTYYADSVKGRFTISRDNAKNTVYLQMNSLKPEDTAVYYCAARNSPGFPGDYWGQGTQVTVSS | high polyreactivity |
| QVHLVESGGGLVQAGGSLRLSGAASGSISGLYAMGCYRQAPGKEREFVARIRWRGDSTYYADSVKGRFTISRDNAKNTVYLQMNSLKPEDTAVYYCAAGLYLFQIWFVNEYDYWGQGTQVTVSS | high polyreactivity |
| QVQLVESAGGLVQAGGSLRLSCAASGRIFYYNAMGWYRQAPGKERELVAGITSRGGSTYADSVKGRFTISRDNAKNTVYLQMNSLKPEDTAVYYCAAVYRLWGKDYDYWGQGTQVTVSS | high polyreactivity |
| QVQLVESGGGLVQPGGSLRLSCAASGFIFTLYAMGWYRQAPGKEREFFAAISWSDGSTTYADSVKGRFTISRDNAKNTVYLQMNSLKREDTAVYYCAAVTSSYIRGLVYHFYYWGQGTLVTVSS | low polyreactivity |
| QVQLVESGGGLVQAGGSLRLSCAASGGTISYYAMGRYRQAPRKERELVAAINWSGASTYYADSVKGRFTNSRDNAKYTVYLELNSLKPEETAVYYCAADSIQYTARPYDYWGQGTQVTVSS | low polyreactivity |
| QVQLVESGGGLVLAGGSLRLSCAASGSIFYVYAMGWYRQAPGKERELVASITWSGGRTYYADSVKGRFTISRDNAKNTVYLQMNSLKPEDTAVYYCNAVSFGARTTSYRYGSCGQGTQVTVSS | high polyreactivity |
| QVQIVESGGGLVQAGGSRRFSCAASGGTFNWNAMGWYRQAPGKERELFAAINRTGGSTYYADSVKARFTISRDNAMNTVYLQMNSLKPEDTAVYYCAKRYYRFYLGWPPEDSWGQGTQVSVSS | low polyreactivity |
| QVQLVESGGGLVQAGGSLRLSCAASGSTFPGNAMGWYRQAPGKERELVARINDGADTNYADSVKGRFTISRDNAKTTVSLQMNSLKPEDTAVYYCANPYFDGRTHFDSWGQGTQVTVSS | low polyreactivity |
| QVQLVESGGGLVQAGGSLRLSCAASGYTYGNYAMGWYRQAPGKERELVAAITSRGGRTYYADSVKGRFTISRDNAKNTVYLQMNSLKPEDTAVYYCAARGRYKDGYRMDYWGQGTQVTVSS | high polyreactivity |
| QVQLVESGGGLVQAGGSLRLSCAASGSTFVYYDMGWYRQAPGKERELVAAITNGGNTYYADSVKGRFTISRDNAKNTVYLQMNSLKPEDTAVYYCAKLYTDAIVWSAYDYWGQGTQVTVSS | low polyreactivity |
| QVHLVESGGGLVQAGGSLRLSCAASGSTFYIYAKGWYRQAPGKERELVAAIDWTGSTYYADSVKGRFTISRDNAKNTVYLQMNSLKPEDPAVYDCAAYYDLEDDSYRLNSWGQGTQVTVSS | high polyreactivity |
| QVQLVESGGGLVQAGGSLRLSCADSGFTFTLYAMGWYRQAPGKERELVAAISGIGGSTYYSDSVKGRFTISSDNAKNTVYLQMNSLKPEDTAVYYCNAVSGDSGDYWGQGTQVNVSS | low polyreactivity |
| QVQLVESGGGLVQAGGSLRLSCAASGRIFGDNVMGWYRQPPGKERELVAAIRKSGGNTYYADSVKGRFTISRDNAKNTVYLHMNSLKPEDTAVYYCAARYPYLYGFVEYDYWGQGTQVTLSS | low polyreactivity |
| QVQLVESGGGLVQAGGSLRLSCAASGSTFKPNAMGWYRQAPGKERELVAAITSGSTYYADSVKGRFTISRDNAKNSVYLQMNSLIPEDSAVYYCATSFRGKSPYRNSGSYYFWGQGTQVTVSS | high polyreactivity |
| QVQLVESGGGLVQAGGSLRLSCAASGSTFTDYAMGWYRQAPGKERELVAAIRFSGGSTYYADSVKGRFTISRDNAKNTVYLQMNSLKPEDTAVYYCAAGGYPWLDSWGQGTQVTVSS | low polyreactivity |
